# B1: SVAP (D-configuration peptide DS-DN-DT-DR-DV-DA-DP) (peptide)
# peptide: SNTRVAP
# modifications: all seven residues are D-configuration amino acids (^DS^DN^DT^DR^DV^DA^DP)
# Biological target: Recombinant human glucose-regulated protein GRP78 (human) (UniProt P11021)
# Assay: SPR (Biacore T200), recombinant human GRP78 coupled to a CM5 chip, peptide injected at 0.3125-20 µM
# Recombinant human glucose-regulated protein GRP78 (human), sequence (P11021 19-654 limits assumed): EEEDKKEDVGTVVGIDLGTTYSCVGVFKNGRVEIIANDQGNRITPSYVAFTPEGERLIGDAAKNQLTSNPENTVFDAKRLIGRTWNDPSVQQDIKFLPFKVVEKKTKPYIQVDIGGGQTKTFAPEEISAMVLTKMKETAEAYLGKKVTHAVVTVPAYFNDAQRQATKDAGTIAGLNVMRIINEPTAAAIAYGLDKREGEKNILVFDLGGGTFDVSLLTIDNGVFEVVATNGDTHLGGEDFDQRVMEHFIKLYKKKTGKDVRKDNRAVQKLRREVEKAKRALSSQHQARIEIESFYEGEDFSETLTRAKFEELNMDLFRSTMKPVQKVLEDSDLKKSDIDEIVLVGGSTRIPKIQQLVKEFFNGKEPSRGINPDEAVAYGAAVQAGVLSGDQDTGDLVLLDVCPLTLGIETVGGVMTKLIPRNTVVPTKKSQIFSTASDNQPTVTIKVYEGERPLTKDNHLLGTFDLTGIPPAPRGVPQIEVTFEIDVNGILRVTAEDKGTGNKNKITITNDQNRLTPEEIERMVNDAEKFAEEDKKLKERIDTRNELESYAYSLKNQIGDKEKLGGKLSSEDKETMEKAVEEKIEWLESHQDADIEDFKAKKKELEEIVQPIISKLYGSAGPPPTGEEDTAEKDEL
binder,measurement,value
B1,Kd,5.22 µM
same,koff,0.0283 s⁻¹

# — patent US11622990
